Our source for the decrease in responses to sub-maximal concentrations of PDGF-BB (relative nuclear intensity of the FoxO1-clover reporter in C3H10T1/2 cells) values is patent US20160290995A1, “METHODS OF SELECTING AKT AGONISTS OR ANTAGONISTS” (OREGON HEALTH & SCIENCE UNIVERSITY, priority 2015, published 2016).

This test deals with PDGF-α receptor, endogenous on C3H10T1/2 mouse embryonic fibroblasts (mouse) (UniProt P26618). Description: cell-based or functional assay.
Chain of PDGF-α receptor, endogenous on C3H10T1/2 mouse embryonic fibroblasts (mouse) (P26618 25-1089): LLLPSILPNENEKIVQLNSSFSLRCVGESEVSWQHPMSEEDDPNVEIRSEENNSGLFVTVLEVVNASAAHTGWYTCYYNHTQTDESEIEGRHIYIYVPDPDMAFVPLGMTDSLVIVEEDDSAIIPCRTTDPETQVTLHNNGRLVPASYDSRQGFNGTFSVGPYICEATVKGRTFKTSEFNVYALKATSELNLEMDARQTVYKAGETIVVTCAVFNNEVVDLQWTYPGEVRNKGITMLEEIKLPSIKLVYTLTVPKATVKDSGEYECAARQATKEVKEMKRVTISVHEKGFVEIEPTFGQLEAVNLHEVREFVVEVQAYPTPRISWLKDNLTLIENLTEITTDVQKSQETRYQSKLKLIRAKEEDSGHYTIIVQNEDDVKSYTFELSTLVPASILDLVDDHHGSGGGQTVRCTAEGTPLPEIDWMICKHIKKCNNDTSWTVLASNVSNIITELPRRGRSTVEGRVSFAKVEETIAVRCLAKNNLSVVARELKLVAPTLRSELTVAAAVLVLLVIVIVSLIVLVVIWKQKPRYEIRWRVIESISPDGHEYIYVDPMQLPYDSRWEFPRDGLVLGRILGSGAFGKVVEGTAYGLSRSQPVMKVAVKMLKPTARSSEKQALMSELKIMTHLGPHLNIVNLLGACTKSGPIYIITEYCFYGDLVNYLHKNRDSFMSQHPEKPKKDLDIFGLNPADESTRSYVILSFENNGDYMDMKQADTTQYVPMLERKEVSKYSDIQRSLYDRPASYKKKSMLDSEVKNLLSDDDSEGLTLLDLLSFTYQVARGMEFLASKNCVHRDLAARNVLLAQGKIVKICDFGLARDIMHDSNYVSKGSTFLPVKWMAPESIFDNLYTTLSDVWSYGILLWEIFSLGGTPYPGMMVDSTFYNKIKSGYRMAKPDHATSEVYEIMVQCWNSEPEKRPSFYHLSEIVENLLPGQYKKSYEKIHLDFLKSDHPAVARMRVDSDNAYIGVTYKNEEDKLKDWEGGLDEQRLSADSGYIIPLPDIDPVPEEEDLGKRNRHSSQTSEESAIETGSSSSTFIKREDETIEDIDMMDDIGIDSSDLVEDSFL

“neutralizing antibody to the PDGF-α receptor (#AF1062, R&D Systems)”: the decrease in responses to sub-maximal concentrations of PDGF-BB (relative nuclear intensity of the FoxO1-clover reporter in C3H10T1/2 cells) is 10%.
